Experimental data reported in patent US5817490A, “Enzymatic process for the manufacture of ascorbic acid 2-keto-L-gulonic acid and esters of 2-keto-L-gulonic acid” (Eastman Chemical Company, priority 1997, dated 1998).
Like-named read-outs stand apart in the source and are kept apart here.

Key:
[1] = format: physicochemical
Description: HPLC sample standards were prepared by dissolving KLG, MeKLG, ascorbic acid (ASA), and butyl-KLG to the appropriate concentration in water. Samples of these standards were placed in filled and sealed vials, stored at room temperature, and analyzed periodically. The HPLC was calibrated on the area response for standards that were injected onto the HPLC as soon as possible after the preparation of the standards.

[2] = enzyme screen for hydrolysis/methanolysis of butyl-KLG (HPLC of products and remaining substrate); format: biochemical; design: KLG formed / MeKLG formed / ASA formed / BuKLG (remaining substrate): unit: ppm
Description: Initial enzyme screens were carried out as follows. Enzyme (typically 10 mg), aqueous buffer (typically 860 microliters (ul) or 550 ul), aqueous 0.2M CaCl2 (10 ul), methanol (typically 90 ul or 400 ul), and an aqueous solution of substrate (typically 90 ul of butyl-KLG at a typical concentration of 110,000 ppm) were added to a 2 ml polypropylene centrifuge tube. The resulting solution was vortexed briefly and placed on a shaker bath at 300 rpm at 38° C. (typically for 18 hours or more). After incubation, samples were centrifuged at 14,000 G's (14,000 times gravity) for 20 minutes to remove enzyme, sampled (300 ul), and diluted to one milliliter with distilled water. If not analyzed by HPLC within the day, samples were frozen prior to analysis.
The data were reported in terms of parts per million of KLG, MeKLG, ascorbic acid (ASA) and butyl-KLG. […] Samples labeled as "no enzyme" were controls within a given run. The controls contained substrate but no enzyme and thus represented experimental and HPLC background data.

[3] = Table 3: 38° C., 16 Hours, 38% Methanol-Water, 0.1M MES Buffer
[4] = Table 8: 38° C., 21 Hours, 8.6% Methanol-Water, 0.2 M MES
[5] = Table 4: 38° C., 47.5 Hours, 38% Methanol-Water, 0.1M MES Buffer
[6] = Table 7: 38° C., 19 Hours, 8.6% Methanol-Water, 0.1M MES
[7] = Table 5: 38° C., 19 Hours, 38% Methanol-Water, 0.1 M MES Buffer
[8] = Table 6: 38°, 19 Hours, 8.6% Methanol-Water, 0.1 M MES

In the case of `O=C1O[C@H]([C@@H](O)CO)C(O)=C1O` [ASA, ascorbic acid], the “Amount Found” value ([1]; 50 ppm standard, 0 minutes) is reported as 53.4 ppm, the “Amount Found” value ([1]; 50 ppm standard, 400 minutes) is reported as 28.3 ppm and the “Amount Found” value ([1]; 50 ppm standard, 715 minutes) is reported as 0 ppm. For the same molecule, the “Amount Found” value ([1]; 100 ppm standard, 0 minutes) was 107 ppm, the “Amount Found” value ([1]; 100 ppm standard, 400 minutes) was 96.6 ppm and the “Amount Found” value ([1]; 100 ppm standard, 715 minutes) was 57.2 ppm. The “Amount Found” value ([1]; 500 ppm standard, 0 minutes) was 534 ppm, the “Amount Found” value ([1]; 500 ppm standard, 400 minutes) was 487 ppm and the “Amount Found” value ([1]; 500 ppm standard, 715 minutes) was 473 ppm.

B1: Rhizoipus Delmar Lipase: Rhizoipus Delmar Lipase (protein, UniProt P61872 96-392, looked up)
Lipase: DDNLVGGMTLDLPSDAPPISLSSSTNSASDGGKVVAATTAQIQEFTKYAGIAATAYCRSVVPGNKWDCVQCQKWVPDGKIITTFTSLLSDTNGYVLRSDKQKTIYLVFRGTNSFRSAITDIVFNFSDYKPVKGAKVHAGFLSSYEQVVNDYFPVVQEQLTAHPTYKVIVTGHSLGGAQALLAGMDLYQREPRLSPKNLSIFTVGGPRVGNPTFAYYVESTGIPFQRTVHKRDIVPHVPPQSFGFLHPGVESWIKSGTSNVQICTSEIETKDCSNSIVPFTSILDHLSYFDINEGSCL
In the case of B1, the ASA formed [2, 3] is reported as 1 ppm, the “BuKLG (remaining substrate)” value [2, 3] is reported as 7392 ppm and the KLG formed [2, 3] is reported as 51 ppm. For the same molecule, the MeKLG formed [2, 3] was 99 ppm, the ASA formed [2, 4] was 0 ppm and the “BuKLG (remaining substrate)” value [2, 4] was 7097 ppm. It also gave a KLG formed [2, 4] of 178 ppm and a MeKLG formed [2, 4] of 0 ppm.

B2: Rhizopus Niveus Lipase: Rhizopus Niveus Lipase (protein, UniProt P61871 96-392, looked up)
Lipase: DDNLVGGMTLDLPSDAPPISLSSSTNSASDGGKVVAATTAQIQEFTKYAGIAATAYCRSVVPGNKWDCVQCQKWVPDGKIITTFTSLLSDTNGYVLRSDKQKTIYLVFRGTNSFRSAITDIVFNFSDYKPVKGAKVHAGFLSSYEQVVNDYFPVVQEQLTAHPTYKVIVTGHSLGGAQALLAGMDLYQREPRLSPKNLSIFTVGGPRVGNPTFAYYVESTGIPFQRTVHKRDIVPHVPPQSFGFLHPGVESWIKSGTSNVQICTSEIETKDCSNSIVPFTSILDHLSYFDINEGSCL
In the case of B2, the ASA formed [2, 3] is reported as 17 ppm, the “BuKLG (remaining substrate)” value [2, 3] is reported as 10453 ppm and the KLG formed [2, 3] is reported as 80 ppm. The MeKLG formed [2, 3] was 252 ppm, the ASA formed [2, 4] was 61 ppm and the “BuKLG (remaining substrate)” value [2, 4] was 7102 ppm. For the same molecule, the KLG formed [2, 4] was 178 ppm and the MeKLG formed [2, 4] was 181 ppm.

B3: Porcine Pancreatic Lipase: Porcine Pancreatic Lipase (protein, UniProt P00591 1-450, looked up)
Pancreatic triacylglycerol …: SEVCFPRLGCFSDDAPWAGIVQRPLKILPWSPKDVDTRFLLYTNQNQNNYQELVADPSTITNSNFRMDRKTRFIIHGFIDKGEEDWLSNICKNLFKVESVNCICVDWKGGSRTGYTQASQNIRIVGAEVAYFVEVLKSSLGYSPSNVHVIGHSLGSHAAGEAGRRTNGTIERITGLDPAEPCFQGTPELVRLDPSDAKFVDVIHTDAAPIIPNLGFGMSQTVGHLDFFPNGGKQMPGCQKNILSQIVDIDGIWEGTRDFVACNHLRSYKYYADSILNPDGFAGFPCDSYNVFTANKCFPCPSEGCPQMGHYADRFPGKTNGVSQVFYLNTGDASNFARWRYKVSVTLSGKKVTGHILVSLFGNEGNSRQYEIYKGTLQPDNTHSDEFDSDVEVGDLQKVKFIWYNNNVINPTLPRVGASKITVERNDGKVYDFCSQETVREEVLLTLNPC
With B3 the ASA formed [2, 3] was 49 ppm, the “BuKLG (remaining substrate)” value [2, 3] was 10709 ppm and the KLG formed [2, 3] was 81 ppm. The MeKLG formed [2, 3] was 316 ppm, the ASA formed [2, 5] was 222 ppm and the “BuKLG (remaining substrate)” value [2, 5] was 10899 ppm. The KLG formed [2, 5] was 229 ppm, the MeKLG formed [2, 5] was 613 ppm and the ASA formed [2, 6] was 314. For the same molecule, the “BuKLG (remaining substrate)” value [2, 6] was 7888, the KLG formed [2, 6] was 333 and the MeKLG formed [2, 6] was 291. The ASA formed [2, 4] was 78 ppm, the “BuKLG (remaining substrate)” value [2, 4] was 6860 ppm and the KLG formed [2, 4] was 303 ppm. The MeKLG formed [2, 4] was 320 ppm.

B4: Hog Pancreatic Lipase: Hog Pancreatic Lipase, Fluka (protein, UniProt P00591 1-450, looked up)
Pancreatic triacylglycerol …: SEVCFPRLGCFSDDAPWAGIVQRPLKILPWSPKDVDTRFLLYTNQNQNNYQELVADPSTITNSNFRMDRKTRFIIHGFIDKGEEDWLSNICKNLFKVESVNCICVDWKGGSRTGYTQASQNIRIVGAEVAYFVEVLKSSLGYSPSNVHVIGHSLGSHAAGEAGRRTNGTIERITGLDPAEPCFQGTPELVRLDPSDAKFVDVIHTDAAPIIPNLGFGMSQTVGHLDFFPNGGKQMPGCQKNILSQIVDIDGIWEGTRDFVACNHLRSYKYYADSILNPDGFAGFPCDSYNVFTANKCFPCPSEGCPQMGHYADRFPGKTNGVSQVFYLNTGDASNFARWRYKVSVTLSGKKVTGHILVSLFGNEGNSRQYEIYKGTLQPDNTHSDEFDSDVEVGDLQKVKFIWYNNNVINPTLPRVGASKITVERNDGKVYDFCSQETVREEVLLTLNPC
In the case of B4, the ASA formed [2, 7] is reported as 130 ppm, the “BuKLG (remaining substrate)” value [2, 7] is reported as 11114 ppm and the KLG formed [2, 7] is reported as 58 ppm. The MeKLG formed [2, 7] was 529 ppm, the ASA formed [2, 8] was 158 ppm and the “BuKLG (remaining substrate)” value [2, 8] was 5284 ppm. It also gave a KLG formed [2, 8] of 890 ppm and a MeKLG formed [2, 8] of 791 ppm.

B5: L-7 (Porcine pancreas): Lipase (Porcine pancreas) (protein, UniProt P00591 1-450, looked up)
Pancreatic triacylglycerol …: SEVCFPRLGCFSDDAPWAGIVQRPLKILPWSPKDVDTRFLLYTNQNQNNYQELVADPSTITNSNFRMDRKTRFIIHGFIDKGEEDWLSNICKNLFKVESVNCICVDWKGGSRTGYTQASQNIRIVGAEVAYFVEVLKSSLGYSPSNVHVIGHSLGSHAAGEAGRRTNGTIERITGLDPAEPCFQGTPELVRLDPSDAKFVDVIHTDAAPIIPNLGFGMSQTVGHLDFFPNGGKQMPGCQKNILSQIVDIDGIWEGTRDFVACNHLRSYKYYADSILNPDGFAGFPCDSYNVFTANKCFPCPSEGCPQMGHYADRFPGKTNGVSQVFYLNTGDASNFARWRYKVSVTLSGKKVTGHILVSLFGNEGNSRQYEIYKGTLQPDNTHSDEFDSDVEVGDLQKVKFIWYNNNVINPTLPRVGASKITVERNDGKVYDFCSQETVREEVLLTLNPC
In the case of B5, the ASA formed [2, 5] is reported as 120 ppm, the “BuKLG (remaining substrate)” value [2, 5] is reported as 5488 ppm and the KLG formed [2, 5] is reported as 94 ppm. For the same molecule, the MeKLG formed [2, 5] was 884 ppm, the ASA formed [2, 6] was 106 and the “BuKLG (remaining substrate)” value [2, 6] was 5392. The KLG formed [2, 6] was 1007 and the MeKLG formed [2, 6] was 575.

B6: Mucor meihei Lipase: Mucor meihei Lipase (protein, UniProt P19515 95-363, looked up)
Lipase: SIDGGIRAATSQEINELTYYTTLSANSYCRTVIPGATWDCIHCDATEDLKIIKTWSTLIYDTNAMVARGDSEKTIYIVFRGSSSIRNWIADLTFVPVSYPPVSGTKVHKGFLDSYGEVQNELVATVLDQFKQYPSYKVAVTGHSLGGATALLCALDLYQREEGLSSSNLFLYTQGQPRVGDPAFANYVVSTGIPYRRTVNERDIVPHLPPAAFGFLHAGEEYWITDNSPETVQVCTSDLETSDCSNSIVPFTSVLDHLSYFGINTGLCT
With B6 the ASA formed [2, 5] was 108 ppm, the “BuKLG (remaining substrate)” value [2, 5] was 7041 ppm and the KLG formed [2, 5] was 54 ppm. For the same molecule, the MeKLG formed [2, 5] was 189 ppm, the ASA formed [2, 6] was 156 and the “BuKLG (remaining substrate)” value [2, 6] was 8620. For the same molecule, the KLG formed [2, 6] was 229, the MeKLG formed [2, 6] was 278 and the ASA formed [2, 4] was 54 ppm. The “BuKLG (remaining substrate)” value [2, 4] was 7067 ppm, the KLG formed [2, 4] was 243 ppm and the MeKLG formed [2, 4] was 283 ppm.

B7: Humicola lanuginosa Lipase: Humicola lanuginosa Lipase (protein, UniProt O59952 23-291, looked up)
Lipase: EVSQDLFNQFNLFAQYSAAAYCGKNNDAPAGTNITCTGNACPEVEKADATFLYSFEDSGVGDVTGFLALDNTNKLIVLSFRGSRSIENWIGNLNFDLKEINDICSGCRGHDGFTSSWRSVADTLRQKVEDAVREHPDYRVVFTGHSLGGALATVAGADLRGNGYDIDVFSYGAPRVGNRAFAEFLTVQTGGTLYRITHTNDIVPRLPPREFGYSHSSPEYWIKSGTLVPVTRNDIVKIEGIDATGGNNQPNIPDIPAHLWYFGLIGTCL
For B7, the ASA formed [2, 3] was 6 ppm, the “BuKLG (remaining substrate)” value [2, 3] was 10191 ppm and the KLG formed [2, 3] was 63 ppm. For the same molecule, the MeKLG formed [2, 3] was 90 ppm, the ASA formed [2, 5] was 42 ppm and the “BuKLG (remaining substrate)” value [2, 5] was 8017 ppm. It also gave a KLG formed [2, 5] of 129 ppm, a MeKLG formed [2, 5] of 241 ppm and an ASA formed [2, 4] of 10 ppm. For the same molecule, the “BuKLG (remaining substrate)” value [2, 4] was 7215 ppm, the KLG formed [2, 4] was 176 ppm and the MeKLG formed [2, 4] was 129 ppm.

B8: Subtilisin Carlsberg: Subtilisin Carlsberg (a protease) (protein, UniProt P00780 106-379, looked up)
Subtilisin Carlsberg: AQTVPYGIPLIKADKVQAQGFKGANVKVAVLDTGIQASHPDLNVVGGASFVAGEAYNTDGNGHGTHVAGTVAALDNTTGVLGVAPSVSLYAVKVLNSSGSGSYSGIVSGIEWATTNGMDVINMSLGGASGSTAMKQAVDNAYAKGVVVVAAAGNSGSSGNTNTIGYPAKYDSVIAVGAVDSNSNRASFSSVGAELEVMAPGAGVYSTYPTNTYATLNGTSMASPHVAGAAALILSKHPNLSASQVRNRLSSTATYLGSSFYYGKGLINVEAAAQ
For B8, the “levels of activity / conversion of butyl-KLG” value ([2]; Example 4: 38% methanol-water, MES, pH 5 to 5.8) was “particularly high levels of activity”, the ASA formed [2, 5] was 0 ppm and the “BuKLG (remaining substrate)” value [2, 5] was 0 ppm. For the same molecule, the KLG formed [2, 5] was 3072 ppm, the MeKLG formed [2, 5] was 47 ppm and the ASA formed [2, 6] was 0. The “BuKLG (remaining substrate)” value [2, 6] was 4428, the KLG formed [2, 6] was 4463 and the MeKLG formed [2, 6] was 93.
